Test results reported in patent US20220273751A1, “GPCR HETEROMER INHIBITORS AND USES THEREOF” (GPCR THERAPEUTICS, INC., priority 2019, published 2022).

Molecular target: CXCR4 (C-X-C Motif Chemokine Receptor 4) (human) (UniProt P61073)
Experiment: cell-based or functional assay

Sequence of CXCR4 (C-X-C Motif Chemokine Receptor 4) (human) (P61073 whole entry): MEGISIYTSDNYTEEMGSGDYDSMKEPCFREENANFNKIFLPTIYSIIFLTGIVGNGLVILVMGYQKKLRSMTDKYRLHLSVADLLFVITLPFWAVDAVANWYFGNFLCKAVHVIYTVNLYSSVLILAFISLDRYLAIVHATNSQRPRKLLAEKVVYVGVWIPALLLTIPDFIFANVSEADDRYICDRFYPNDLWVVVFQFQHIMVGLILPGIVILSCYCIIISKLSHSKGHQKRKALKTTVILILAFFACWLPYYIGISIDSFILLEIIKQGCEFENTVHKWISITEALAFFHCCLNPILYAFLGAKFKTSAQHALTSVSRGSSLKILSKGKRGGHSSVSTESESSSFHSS

IC50 of Ca2+ response, MDA-MB-231 cells expressing CXCR4 alone: 579 nM
IC50 of Ca2+ response, MDA-MB-231 cells with CXCR4 + ADRB2, with Carvedilol 600 nM: 1.94 nM
IC50 of Ca2+ response, MDA-MB-231 cells with CXCR4 + ADRB2, without Carvedilol: 88.7 nM
Substance: BKT140 (peptide)
